Each block holds one binder with its values, some of them ahead of it.
Tests used:
[1] = target: T1, human-chicken LAP-TGFβ1 chimera #2.2 on HT1080 cells (human/chicken chimera, UniProt P01137 30-390); assay: flow cytometry, HT1080 cells; grey bar = no anti-LAP antibody
T1 construct: also called HT1080-ch2.2

[2] = target: T2, human LAP-TGFβ1 with K27C and Y75C mutations on HT1080 cells (human, UniProt P01137 30-390); assay: as above
T2 construct: also called closed conformation

[3] = target: T3, human-chicken LAP-TGFβ1 chimera #2.3 on HT1080 cells (human/chicken chimera, UniProt P01137 30-390); assay: as above
T3 construct: also called HT1080-ch2.3

[4] = target: T4, mature human TGFβ1 (free TGFβ1, without LAP) (human, UniProt P01137 279-390); assay: TGFβ1 ELISA after pre-incubation of 1000 pg mature TGFβ1 with antibody; loss of signal reflects binding
T4 construct: also called mature TGFβ; free human TGFβ1
Experimental: To determine whether anti-LAP antibodies 28G11_hIgG1, 22F9_hIgG1, 20E6_hIgG1, 17G8_hIgG1, and 24E3_hIgG1, bind to free human TGFβ1 (i.e., mature TGFβ1 that lacks LAP), the ability of the antibodies to inhibit an anti-TGFβ ELISA was evaluated. Briefly, mature TGFβ1 (1000 pg) was incubated with the indicated anti-LAP antibodies at 10 μg/mL, an isotype control antibody as a negative control or the commercially available anti-TGFβ antibody 1D11 as a positive control for 10 minutes on ice. For example, the 1D11 antibody is commercially available from any number of sellers, for example Bio x Cell Inc. (West Lebanon, N.H.). Supernatants were assayed in a TGFβ1 ELISA (R&D Systems) according to the manufacturer instructions to measure free TGFβ1. […] Note that Figure and FIG. are used interchangeably in this application.

[5] = target: T5, fusion protein of a human IgG1 Fc domain and human LAP-TGFβ1 (human, UniProt P01137 30-390); assay: BLI, 2:1 heterogeneous ligand model, component 1
T5 construct: printed both as Fc-huB1 and LAP-TGFβ-Fc; also called Fc-huB1; Fc-human LAP
Experimental: (§1) The 20E6_H0.2aL1_IgG1 antibody was biotinylated using EZ-Link SulfoNHS-LC-Biotin (ThermoFisher). A streptavidin-functionalized tip was equilibrated in binding buffer (10 mM sodium phosphate, 150 mM sodium chloride, 1% (w/v) bovine serum albumin, 0.05% (w/v) sodium azide, pH 7.4) and dipped in a 10 μg/mL solution of biotinylated anti-LAP in binding buffer for 30 seconds to load the tip with antibody. The antibody-loaded tip was then washed in binding buffer and placed in a solution containing 0-24 nM of a fusion protein having a human IgG1 Fc domain fused to either human LAP-TGFβ1, human LAP-TGFβ2 or human LAP-TGFβ3. The antigen was allowed to bind to antibody for 5 minutes (association phase), and then the tip was moved to binding buffer (dissociation phase). The association and dissociation phases were fit to a 2:1 heterogenous ligand binding model to determine the binding rate constants. As shown in FIG. 21A and Table 17, 20E6_H0.2aL1_IgG1 bound with sub-nanomolar affinity to human LAP-TGFβ1, but not to human LAP-TGFβ2 (FIG. 21B) or LAP-TGFβ3 (FIG. 21C).

[6] = target: T6, fusion protein of a human IgG1 Fc domain and cynomolgus monkey LAP-TGFβ1 (human; cynomolgus monkey); assay: BLI, 2:1 model, component 1
T6 construct: also called cynomolgus monkey LAP-TGFβ-Fc
Experimental: as §1
(§2) The binding of 20E6_H0.2aL1_IgG1 antibody and 20E6_H0.2aL1_hIgG4mut antibody to LAP-TGFβ1 of various species was examined by bio-layer interferometry using the method described in Example 12, except that the antibody-loaded tip was placed in a solution containing 0-24 nM of a fusion protein having a human IgG1 Fc domain fused to either mouse, rat, cynomolgus monkey, or human LAP-TGFβ1.

[7] = target: T7, fusion protein of a human IgG1 Fc domain and mouse LAP-TGFβ1 (human; mouse, UniProt P04202 30-390); assay: BLI, 2:1 model, component 1
T7 construct: also called mouse LAP-TGFβ-Fc
Experimental: as §1, §2

[8] = target: T5, fusion protein of a human IgG1 Fc …; assay: BLI, 2:1 model, component 1
Experimental: as §1, §2

[9] = target: T8, fusion protein of a human IgG1 Fc domain and rat LAP-TGFβ1 (human; rat, UniProt P17246 30-390, limits assumed); assay: BLI, 2:1 model, component 1
T8 construct: also called rat LAP-TGFβ-Fc
Experimental: as §1, §2

T8 sequence (P17246 30-390 limits assumed): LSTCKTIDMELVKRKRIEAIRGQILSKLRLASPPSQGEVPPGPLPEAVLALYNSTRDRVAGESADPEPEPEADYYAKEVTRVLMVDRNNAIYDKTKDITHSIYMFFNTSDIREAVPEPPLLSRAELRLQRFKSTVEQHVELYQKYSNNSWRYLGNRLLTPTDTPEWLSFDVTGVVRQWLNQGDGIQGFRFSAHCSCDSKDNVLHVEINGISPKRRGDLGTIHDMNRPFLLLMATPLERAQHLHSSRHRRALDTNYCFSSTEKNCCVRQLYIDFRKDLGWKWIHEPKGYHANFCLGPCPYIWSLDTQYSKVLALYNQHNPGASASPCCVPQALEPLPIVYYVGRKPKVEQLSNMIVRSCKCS
T7 sequence (P04202 30-390 limits assumed): as the sequence (P17246 30-390 limits assumed) above, with D93E, T99S, F131L, T134S, V202K counted along it
T5 sequence (P01137 30-390 limits assumed): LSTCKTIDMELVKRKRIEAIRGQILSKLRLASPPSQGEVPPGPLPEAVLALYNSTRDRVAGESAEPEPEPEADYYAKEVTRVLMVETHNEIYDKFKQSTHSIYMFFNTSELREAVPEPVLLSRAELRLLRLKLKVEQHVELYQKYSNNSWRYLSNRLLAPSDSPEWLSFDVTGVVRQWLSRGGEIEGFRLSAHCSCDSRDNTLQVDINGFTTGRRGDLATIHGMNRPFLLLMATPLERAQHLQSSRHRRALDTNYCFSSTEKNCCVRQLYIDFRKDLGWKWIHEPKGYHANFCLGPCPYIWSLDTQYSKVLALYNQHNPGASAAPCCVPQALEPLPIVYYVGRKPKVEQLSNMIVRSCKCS
T2 sequence (P01137 other isoform, or with tags, fused parts or gaps K27C Y75C K27C Y75C): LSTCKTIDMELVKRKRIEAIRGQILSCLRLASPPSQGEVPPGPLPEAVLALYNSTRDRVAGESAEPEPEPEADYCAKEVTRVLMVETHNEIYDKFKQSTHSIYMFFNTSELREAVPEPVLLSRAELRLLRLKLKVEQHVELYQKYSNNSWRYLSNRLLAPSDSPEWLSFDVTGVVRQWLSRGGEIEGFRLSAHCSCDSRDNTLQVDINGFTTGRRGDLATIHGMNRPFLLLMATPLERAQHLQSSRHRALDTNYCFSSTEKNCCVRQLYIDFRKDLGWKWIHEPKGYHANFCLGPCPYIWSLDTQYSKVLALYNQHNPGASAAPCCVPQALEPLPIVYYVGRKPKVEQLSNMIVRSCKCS
T3 sequence (P01137 other isoform, or with tags, fused parts or gaps mutant): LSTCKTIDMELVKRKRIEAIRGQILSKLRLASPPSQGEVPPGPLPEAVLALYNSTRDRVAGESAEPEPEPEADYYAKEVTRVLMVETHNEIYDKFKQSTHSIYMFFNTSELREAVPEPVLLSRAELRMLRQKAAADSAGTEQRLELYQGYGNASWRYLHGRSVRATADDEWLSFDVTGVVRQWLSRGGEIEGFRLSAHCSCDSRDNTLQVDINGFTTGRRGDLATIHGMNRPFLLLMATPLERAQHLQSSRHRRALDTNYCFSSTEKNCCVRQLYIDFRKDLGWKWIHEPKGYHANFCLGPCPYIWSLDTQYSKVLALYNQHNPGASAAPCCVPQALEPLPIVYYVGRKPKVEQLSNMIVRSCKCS
T4 sequence (P01137 279-390 limits assumed): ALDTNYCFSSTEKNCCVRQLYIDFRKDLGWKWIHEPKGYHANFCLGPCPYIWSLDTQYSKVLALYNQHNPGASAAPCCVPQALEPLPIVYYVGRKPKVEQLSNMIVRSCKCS
T1 sequence (P01137 other isoform, or with tags, fused parts or gaps mutant): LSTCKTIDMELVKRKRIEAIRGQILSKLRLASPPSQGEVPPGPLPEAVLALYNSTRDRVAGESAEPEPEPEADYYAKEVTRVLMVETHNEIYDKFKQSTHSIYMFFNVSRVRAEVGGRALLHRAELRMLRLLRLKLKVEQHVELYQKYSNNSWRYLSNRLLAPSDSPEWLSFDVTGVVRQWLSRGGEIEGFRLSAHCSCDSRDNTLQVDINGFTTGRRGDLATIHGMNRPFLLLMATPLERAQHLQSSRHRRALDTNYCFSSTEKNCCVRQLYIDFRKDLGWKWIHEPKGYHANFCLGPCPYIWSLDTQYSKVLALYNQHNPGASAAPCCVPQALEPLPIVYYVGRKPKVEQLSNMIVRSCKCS

binding result [1]: no binding
binding result [2]: binds
binding result [3]: binds
binding result [4]: no binding (tested: 10 µg/mL)
B1: 22F9_hIgG1 (antibody, V domains shown)
VH: QVQLQQPGAELVKPGASVKLSCKASGYTFTSYWMHWVKQRPGQGLEWIGMIHPNSGSTNYNEKFKSKATLTVDKSSSTAYMQLSSLTSEDSAVYYCAYYDYDGFFDVWGTGTTVTVSS
VL: DIVLTQSPASLDVSLGQRATISCRASKSVSTSGYSYMHWYQQKSGQPPKLLIYLASNLESGVPARFSGSGSGTHFTLNIHPVEEEDAATYYCQHSRELPYTFGGGTKLEIK

Kd [5]: 11.4 nM
koff [5]: 0.0369 s⁻¹
kon [5]: 3.24e+06 M⁻¹ s⁻¹
Kd [6]: 15.8 nM
koff [6]: 0.0394 s⁻¹
kon [6]: 2.49e+06 M⁻¹ s⁻¹
Kd [7]: 14.2 nM
koff [7]: 0.0343 s⁻¹
kon [7]: 2.42e+06 M⁻¹ s⁻¹
Kd [8]: 16.5 nM
koff [8]: 0.0355 s⁻¹
kon [8]: 2.15e+06 M⁻¹ s⁻¹
Kd [9]: 13.4 nM
koff [9]: 0.0441 s⁻¹
kon [9]: 3.3e+06 M⁻¹ s⁻¹
B2: 20E6_H0.2aL1_hIgG1 (antibody)
heavy: not shown
light: DIQMTQSPSSLSASVGDRVTITCRASQDITNYLNWYQQKPGKAVKLLIYYTSRLHSGVPSRFSGSGSGTDYTLTISSLQPEDFATYFCQQGDTLPWTFGQGTKLEIKRTVAAPSVFIFPPSDEQLKSGTASVVCLLNNFYPREAKVQWKVDNALQSGNSQESVTEQDSKDSTYSLSSTLTLSKADYEKHKVYACEVTHQGLSSPVTKSFNRGEC
notes: also called 20E6_H0.2aL1_IgG1; humanized 20E6

From patent US20220017612A1 (TILOS THERAPEUTICS, published 2022)
